Results reported in article doi:10.1101/305789.
Several values for one entry are separate records, joined by “and”; a condition that tells them apart may be missing. Equal values may be shown once.

Target: Flag-tagged tomato PCNA (Proliferating cell nuclear antigen) (Solanum lycopersicum)
Test: western blot of anti-Flag immuno-purified protein

stoichiometry N: 2 and 3
Substance: Flag-tagged tomato PCNA (Proliferating cell nuclear antigen) (natural protein)
